Drawing on patent publication US20260166128A1, “HUMAN AMYLIN ANALOG, AND DERIVATIVE THEREOF AND USE THEREOF” (priority 2022, published 2026), this text covers Dissolution property, Freeze storage property and Freeze storage yield for twelve compounds.

Numbered stars: 1 amine (or outer) side, 2 acyl side, 3 side chain; on linkers, the order of the positions; unused ones are H or OH. Bridge positions count the residues as written; N and C are the ends. Square brackets hold non-standard residues; d marks the D form. Primed or numbered codes have the meaning given here. Side chains are listed from the residue outwards. Peptide text beside a SMILES is read from it. * marks the point of attachment. C20 diacid = O=C(O)CCCCCCCCCCCCCCCCCCC(=O)*; C18 diacid = O=C(O)CCCCCCCCCCCCCCCCC(=O)*; X1 = N[C@@H]1CCN([*:1])[C@@H]1C(=O)[*:2]; C16 diacid = O=C(O)CCCCCCCCCCCCCCC(=O)*; γGlu = O=C(O)[C@H](CCC(=O)[*:2])N[*:1]; C14 diacid = O=C(O)CCCCCCCCCCCCC(=O)*; C12 diacid = O=C(O)CCCCCCCCCCC(=O)*; HOOC(CH2)8CO = O=C(O)CCCCCCCCC(=O)*; Trx′ = not defined here

A short description of the series: Freeze-thaw stability of derivatives (freeze-thaw yield by liquid chromatography). The following applies: for Dissolution property: appearance after dissolution at 0.2 mg/ml in 20 mM phosphate buffer solution (PB) (pH 7.0); for Freeze storage property: appearance after overnight storage at −20° C. and thawing to room temperature, 0.2 mg/ml in 20 mM PB (pH 7.0); for Freeze storage yield: concentration of polypeptide after freezing and thawing / concentration before, by liquid chromatography, −20° C. overnight. The series is classed as physicochemical. The procedure: The freeze-dried powder of the polypeptide analog derivative prepared in Example 1 was mixed with a buffer solution according to a mass-volume ratio of 0.2 mg/ml, the polypeptide was dissolved with 20 mM phosphate buffer solution (PB) (pH 7.0), the sample was stored at −20° C. for overnight storage, and then the sample was taken out to be restored to room temperature for thawing. During the experiment, property changes of the polypeptide after dissolution and freezing and thawing were observed and recorded respectively, and concentrations of the polypeptide before and after the freezing and thawing were detected by the following liquid chromatography method: Materials and equipment: high-performance liquid chromatographic instrument (Agilent 1200), ultrapure water (18.2 MΩ self-manufactured ultrapure water), acetonitrile (HPLC grade), and trifluoroacetic acid (HPLC grade); and reversed-phase chromatographic column: […] A sample to be tested was centrifuged at 10,000 rpm and 4° C. for 3 minutes, and a supernatant was taken and added into a liquid-phase sample injection bottle. […] A freeze-thaw yield was calculated by the following formula: freeze-thaw yield=concentration of polypeptide after the freezing and thawing/concentration of polypeptide before the freezing and thawing.

As for “PD152: KCNTATCATQRLADFLRHSSNNLKPILPPTNVGSNT-trans-Hyp-NH2; N-terminal, 1K-ϵ; γGlu + C18 diacid ({C18 diacid-γGlu}-K([γGlu-C18 diacid])CNTATCATQRLADFLRHSSNNLKPILPPTNVGSNT-{trans‑Hyp-NH2}; disulfide 2-7 (inferred))”, the Dissolution property result is “Clear”, the Freeze storage property result was “Clear” and the Freeze storage yield was 97.96%.

Take “PD133: KCNTATCATQRLADFLRHSSNNLGPILPPTNVGSNT-trans-Hyp-NH2; N-terminal; Trx + C20 diacid ({C20 diacid-Trx′}-KCNTATCATQRLADFLRHSSNNLGPILPPTNVGSNT-{trans‑Hyp-NH2}; disulfide 2-7 (inferred); reading uncertain; also: printed as KCNTATCATQRLADFLRHSSNNLGPILPPTNVGSNT-trans-Hyp-NH2)”: the Dissolution property result is on record as “Clear”, the Freeze storage property result is on record as “Clear” and the Freeze storage yield is on record as 98.24%.

On to `CC[C@H](C)[C@H](NC(=O)[C@@H]1CCCN1C(=O)[C@H](CCCCNC(=O)CC[C@H](NC(=O)CCCCCCCCCCCCCCCCCCC(=O)O)C(=O)O)NC(=O)[C@H](CC(C)C)NC(=O)[C@H](CC(N)=O)NC(=O)[C@H](CC(N)=O)NC(=O)[C@H](CO)NC(=O)[C@H](CO)NC(=O)[C@H](Cc1c[nH]cn1)NC(=O)[C@H](CCCNC(=N)N)NC(=O)[C@H](CC(C)C)NC(=O)[C@H](Cc1ccccc1)NC(=O)[C@H](CC(=O)O)NC(=O)[C@H](C)NC(=O)[C@H](CC(C)C)NC(=O)[C@H](CCCNC(=N)N)NC(=O)[C@H](CCC(N)=O)NC(=O)[C@@H](NC(=O)[C@H](C)NC(=O)[C@@H]1CSSC[C@H](NC(=O)[C@@H](N)CCCNC(=N)N)C(=O)N[C@@H](CC(N)=O)C(=O)N[C@@H]([C@@H](C)O)C(=O)N[C@@H](C)C(=O)N[C@@H]([C@@H](C)O)C(=O)N1)[C@@H](C)O)C(=O)N[C@@H](CC(C)C)C(=O)N1CCC[C@H]1C(=O)N1CCC[C@H]1C(=O)N[C@H](C(=O)N[C@@H](CC(N)=O)C(=O)N[C@H](C(=O)NCC(=O)N[C@@H](CO)C(=O)N[C@@H](CC(N)=O)C(=O)N[C@H](C(=O)N1CCC[C@H]1C(N)=O)[C@@H](C)O)C(C)C)[C@@H](C)O` [PD042] (H-RCNTATCATQRLADFLRHSSNNLK([γGlu-C20 diacid])PILPPTNVGSNTP-NH2; disulfide 2-7 (inferred); N-terminus assumed), for which the Dissolution property entry was “Clear”, the Freeze storage property result is given as “Clear” and the Freeze storage yield came out at 95.19%.

In the case of “PD139: KCNTATCATQRLADFLRHSSNNLGPILPPTNVGSNT-trans-Hyp-NH2; N-terminal, 1K-ϵ; γGlu + C18 diacid ({C18 diacid-γGlu}-K([γGlu-C18 diacid])CNTATCATQRLADFLRHSSNNLGPILPPTNVGSNT-{trans‑Hyp-NH2}; disulfide 2-7 (inferred))”, the Dissolution property entry was “Clear”, the Freeze storage property entry was “Clear” and the Freeze storage yield is recorded as 104.78%.

As to `CC[C@H](C)[C@H](NC(=O)[C@@H]1CCCN1C(=O)[C@H](CCCCNC(=O)CC[C@H](NC(=O)CCCCCCCCCCCCCCCCCCC(=O)O)C(=O)O)NC(=O)[C@H](CC(C)C)NC(=O)[C@H](CC(N)=O)NC(=O)[C@H](CC(N)=O)NC(=O)[C@H](CO)NC(=O)[C@H](CO)NC(=O)[C@H](Cc1c[nH]cn1)NC(=O)[C@H](CCCNC(=N)N)NC(=O)[C@H](CC(C)C)NC(=O)[C@H](Cc1ccccc1)NC(=O)[C@H](CC(=O)O)NC(=O)[C@H](C)NC(=O)[C@H](CC(C)C)NC(=O)[C@H](CCCNC(=N)N)NC(=O)[C@H](CCC(N)=O)NC(=O)[C@@H](NC(=O)[C@H](C)NC(=O)[C@@H]1CSSC[C@H](NC(=O)[C@@H](N)CCCNC(=N)N)C(=O)N[C@@H](CC(N)=O)C(=O)N[C@@H]([C@@H](C)O)C(=O)N[C@@H](C)C(=O)N[C@@H]([C@@H](C)O)C(=O)N1)[C@@H](C)O)C(=O)N[C@@H](CC(C)C)C(=O)N1CCC[C@H]1C(=O)N1CCC[C@H]1C(=O)N[C@H](C(=O)N[C@@H](CC(N)=O)C(=O)N[C@H](C(=O)NCC(=O)N[C@@H](CO)C(=O)N[C@@H](CC(N)=O)C(=O)N[C@H](C(=O)N1CCC[C@H]1C(N)=O)[C@@H](C)O)C(C)C)[C@@H](C)O` [PD048] (H-RCNTATCATQRLADFLRHSSNNLK([γGlu-C20 diacid])PILPPTNVGSNTP-NH2; disulfide 2-7 (inferred); N-terminus assumed), the Dissolution property result is on record as “Clear”, the Freeze storage property result is “Clear” and the Freeze storage yield is on record as 102.16%.

For the compound “PD148: KCNTATCATQRLADFLRHSSNNLKPILPPTNVGSNT-trans-Hyp-NH2; N-terminal, 1K-ϵ; γGlu + C10 diacid ({HOOC(CH2)8CO-γGlu}-K([γGlu-HOOC(CH2)8CO])CNTATCATQRLADFLRHSSNNLKPILPPTNVGSNT-{trans‑Hyp-NH2}; disulfide 2-7 (inferred))”, the Dissolution property result was “Clear”, the Freeze storage property result was “Clear” and the Freeze storage yield is 103.34%.

In the case of “PD138: KCNTATCATQRLADFLRHSSNNLGPILPPTNVGSNT-trans-Hyp-NH2; N-terminal, 1K-ϵ; γGlu + C16 diacid ({C16 diacid-γGlu}-K([γGlu-C16 diacid])CNTATCATQRLADFLRHSSNNLGPILPPTNVGSNT-{trans‑Hyp-NH2}; disulfide 2-7 (inferred))”, the Dissolution property entry is “Clear”, the Freeze storage property result is on record as “Clear” and the Freeze storage yield is listed as 106.03%.

With “PD135: KCNTATCATQRLADFLRHSSNNLGPILPPTNVGSNT-trans-Hyp-NH2; N-terminal, 1K-ϵ; γGlu + C10 diacid ({HOOC(CH2)8CO-γGlu}-K([γGlu-HOOC(CH2)8CO])CNTATCATQRLADFLRHSSNNLGPILPPTNVGSNT-{trans‑Hyp-NH2}; disulfide 2-7 (inferred))”, the Dissolution property entry was “Clear”, the Freeze storage property entry is on record as “Clear” and the Freeze storage yield worked out at 110.57%.

With “PD150: KCNTATCATQRLADFLRHSSNNLKPILPPTNVGSNT-trans-Hyp-NH2; N-terminal, 1K-ϵ; γGlu + C14 diacid ({C14 diacid-γGlu}-K([γGlu-C14 diacid])CNTATCATQRLADFLRHSSNNLKPILPPTNVGSNT-{trans‑Hyp-NH2}; disulfide 2-7 (inferred))”, the Dissolution property entry is “Clear”, the Freeze storage property entry is “Clear” and the Freeze storage yield is 103.74%.

As for “PD137: KCNTATCATQRLADFLRHSSNNLGPILPPTNVGSNT-trans-Hyp-NH2; N-terminal, 1K-ϵ; γGlu + C14 diacid ({C14 diacid-γGlu}-K([γGlu-C14 diacid])CNTATCATQRLADFLRHSSNNLGPILPPTNVGSNT-{trans‑Hyp-NH2}; disulfide 2-7 (inferred))”, the Dissolution property result is “Clear”, the Freeze storage property entry is listed as “Clear” and the Freeze storage yield is listed as 102.20%.

In the case of `CC[C@H](C)[C@H](NC(=O)[C@@H]1CCCN1C(=O)[C@H](CCCCNC(=O)CC[C@H](NC(=O)CCCCCCCCCCCCCCCCCCC(=O)O)C(=O)O)NC(=O)[C@H](CC(C)C)NC(=O)[C@H](CC(N)=O)NC(=O)[C@H](CC(N)=O)NC(=O)[C@H](CO)NC(=O)[C@H](CO)NC(=O)[C@H](Cc1c[nH]cn1)NC(=O)[C@H](CCCNC(=N)N)NC(=O)[C@H](CC(C)C)NC(=O)[C@H](Cc1ccccc1)NC(=O)[C@H](CC(=O)O)NC(=O)[C@H](C)NC(=O)[C@H](CC(C)C)NC(=O)[C@H](CCCNC(=N)N)NC(=O)[C@H](CCC(N)=O)NC(=O)[C@@H](NC(=O)[C@H](C)NC(=O)[C@@H]1CSSC[C@H](NC(=O)[C@@H](N)CCCNC(=N)N)C(=O)N[C@@H](CC(N)=O)C(=O)N[C@@H]([C@@H](C)O)C(=O)N[C@@H](C)C(=O)N[C@@H]([C@@H](C)O)C(=O)N1)[C@@H](C)O)C(=O)N[C@@H](CC(C)C)C(=O)N1CCC[C@H]1C(=O)N1CCC[C@H]1C(=O)N[C@H](C(=O)N[C@@H](CC(N)=O)C(=O)N[C@H](C(=O)NCC(=O)N[C@@H](CO)C(=O)N[C@@H](CC(N)=O)C(=O)N[C@H](C(=O)N1CC[C@@H](N)[C@H]1C(N)=O)[C@@H](C)O)C(C)C)[C@@H](C)O` [PD062] (H-RCNTATCATQRLADFLRHSSNNLK([γGlu-C20 diacid])PILPPTNVGSNT[X1]-NH2; disulfide 2-7; N-terminus assumed), the Dissolution property result was “Clear”, the Freeze storage property entry was “Clear” and the Freeze storage yield was determined as 102.63%.

As to “PD136: KCNTATCATQRLADFLRHSSNNLGPILPPTNVGSNT-trans-Hyp-NH2; N-terminal, 1K-ϵ; γGlu + C12 diacid ({C12 diacid-γGlu}-K([γGlu-C12 diacid])CNTATCATQRLADFLRHSSNNLGPILPPTNVGSNT-{trans‑Hyp-NH2}; disulfide 2-7 (inferred))”, the Dissolution property result is “Clear”, the Freeze storage property entry is “Clear” and the Freeze storage yield came out at 108.07%.
